Results taken from patent publication US20250257332A1, “TRUNCATED AND FUSION PROTEINS” (Monash University, priority 2021, published 2025).
“Also recorded” adds a separate entry of the source.

Key:
[1] = system: C2C12 murine myoblast cells; assay: C2C12 cell proliferation, CyQuant Proliferation Assay kit; assay type: cell-based, mouse; conditions: 20 nM, 48 hours, compared with full-length NAMPT
Procedure: FIG. 7. Human NAMPT variants stimulate muscle progenitor proliferation. C2C12 mouse myoblasts were treated with 20 nM full length NAMPT (NAMPT) or NAMPT variants for (NAMPTxxx-xxx, where xxx are amino acid numbers) 48 hours. Quantification of cell proliferation was performed using CyQuant Proliferation Assay kit. […] Box and whiskers denote median with minimum and maximum values. n=4-5 independent experiments per protein. Statistical significance is indicated as exact p-value. […] Significance between conditions were analysed by one-way ANOVA with Tukey post-hoc test.
Human NAMPTcif (hNAMPTcif) and truncated variants of hNAMPTcif were designed by progressively removing N-terminal regions containing positively charged amino acids. Four truncations were produced and numbered T1 to T4. Recombinant protein was produced using a bacterial expression system. hNAMPTcif variants were purified by FPLC using His-tag affinity purification. Cell proliferation assays were performed using C2C12 murine myoblast cells treated with purified recombinant hNAMPTcif variants, as well as full length NAMPT. Cells were treated with 10 nM of recombinant protein for 48 hours in DMEM supplemented with 2% foetal bovine serum at 37° C., 5% CO2. PBS treatment was used as a negative control. 10% foetal bovine serum was used as positive control. Quantification of proliferation was performed using commercially-available CyQuant Proliferation Assay kit (Thermo Fisher Scientific) according to manufacturer's instructions and read using a Synergy H1 plate reader (BioTek). Data were presented as percentage increase versus.
The heparin-binding sequence of placenta growth factor 2 (PIGF2) was fused to the N-terminus of NAMPTcif and produced using a bacterial expression system. PIGF-NAMPTcif was purified by FPLC using His-tag affinity purification followed by size exclusion chromatography. Cell proliferation assays were performed using C2C12 murine myoblast cells treated with purified recombinant NAMPTcif and full length NAMPT. Cells were treated with 2 nM, 10 nM and 20 nM concentrations of recombinant protein for 48 hours in DMEM supplemented with 2% foetal bovine serum at 37° C., 5% CO2. PBS treatment was used as a negative control. 10% foetal bovine serum was used as positive control. Quantification of proliferation was performed using commercially-available CyQuant Proliferation Assay kit (Thermo Fisher Scientific) according to manufacturer's instructions and read using a Synergy H1 plate reader (BioTek). Data were presented as percentage increase versus negative control. A two-tailed unpaired t-test was used to determine statistical significance.

C2C12 myoblasts = assay: C2C12 myoblast proliferation by EdU incorporation; assay type: cell-based, mouse; conditions: exogenously added factor vs control
Procedure: FIG. 2. […] In vitro assay assessing the effects of exogenously introduced factors on C2C12 myoblast proliferation. Proliferation is identified by EdU incorporation. […] Mean+S.D. Two-way ANOVA with Tukey's multiple comparison test. […] Mean±SEM
The mouse muscle cell line C2C12 (Yaffe, D. & Saxel, O. Serial passaging and differentiation of myogenic cells isolated from dystrophic mouse muscle. Nature 270, 725 (1977) were cultured in growth media (Dulbecco's Modified Eagle Medium (4.5 g/l D-Glucose, No L Glutamine, No Sodium Pyruvate (Gibco))+20% Fetal Bovine Solution-One Shot (Gibco)+1% Glut Max 100×(Gibco)). Cells were maintained at 37° C., 5% CO2. Cells at 70% confluence, passage 8 were extracted from T75 flasks with 0.025% Tryspin EDTA (Gibco), neutralised in growth media, spun at 180×g for 5 min to pellet cells. The cells were then resuspended in 10 ml of fresh growth media. 500 μl of cells were plated on a 8-well on cover glass II (Sarstedt) chamber slide at a density of 1×10^3 cells/ml. Cells were left 4 h at 37° C. to re-attach. For drug treatments, the media were supplemented with appropriate doses and cultured for 6 h.

[2] = system: needle-stab muscle injury in zebrafish larvae; assay: Larval zebrafish muscle injury and EdU pulse-chase; assay type: in vivo; conditions: 57 nM in Ringer's solution immediately after injury at 4 dpf; EdU at 2 dpi
Procedure: Zebrafish larvae (4 dpf) were anaesthetized in 0.01% tricaine (MS-222) (Sigma-Aldrich) in Ringer's solution. Needle-stab injury was carried out in the dorsal myotome, consisting in a single 30-gauge needle puncture that generates an extensive injury with many damaged muscle fibres. Nampt fragment treatments were carried out by incubating 4 dpf needle-stab-injured larvae in 57 nM Nampt in Ringer's solution immediately after injury. Needle-stab-injured larvae at 6 dpf (2 dpi) were transferred into Ringer's solution containing 50 μg ml-1 EdU (Thermo Fisher Scientific) for 1 h and chased for a further 1.5 h before fixation. Samples were developed using the Click-iT EdU Alexa Fluor 647 imaging Kit (Thermo Fisher Scientific) following the manufacturer's protocol, followed by a phalloidin immunostaining (Thermo Fisher Scientific). EdU+ cells in a region encompassing two myotomes on either side of the injury were quantified as the number of EdU+ cells outside the injury region. EdU+ cells in the caudal haematopoietic tissue were excluded from this analysis. Statistical analysis has been conducted using Two-way ANOVA with Tuckey's multiple comparison test.

[3] = system: Human primary satellite cells; assay: Human primary satellite cell proliferation, CyQuant; assay type: cell-based; conditions: 20 nM; 48 hours; media with IGF-1 and FGF-2
Procedure: (§1) FIG. 8. Human NAMPT variants stimulate human satellite cell proliferation. Human primary satellite cells were treated with 20 nM full length NAMPT (NAMPT) or NAMPT variants (NAMPTxxx-xxx, where xxx are amino acid numbers) for 48 hours. The media contained the growth factors IGF-1 and FGF-2 as well. Quantification of cell proliferation was performed using CyQuant Proliferation Assay kit. […] Treatment with 20% FBS was used as a positive control. Box and whiskers denote median with minimum and maximum values. n=6-10 independent experiments per protein. Statistical significance is indicated as p-value and determined by one-sample t-test.
The inventors next sought to compare the activity of full length NAMPT, NAMPT402-491 and NAMPT422-491 on human satellite cell proliferation. Human primary satellite cells were treated with 20 nM full length NAMPT (NAMPT) or NAMPT402-491 and NAMPT422-491 for 48 hours.

[4] = system: Human primary endothelial cells derived from umbilical vein; assay: Human primary endothelial cell proliferation, CyQuant; assay type: cell-based; conditions: 20 nM; 48 hours
Procedure: as §1, with “9.” for “8.”, “endothelial” for “satellite”, “cells derived from umbilical vein” for “cells”, “hours.” for “hours. The media contained the growth factors IGF-1 and FGF-2 as well.”, “10%” for “20%”, “n=6” for “n=6-10”
Similarly, the inventors next investigated the activity of full length NAMPT, NAMPT402-491 and NAMPT422-491 on human endothelial cell proliferation. Human endothelial cells were derived from umbilical vein and treated with 20 nM full length NAMPT (NAMPT) or NAMPT variants for 48 hours.

Row | Molecule | cell proliferation, percentage increase vs PBS-treated control [1] | myoblast proliferation (EdU incorporation), factor alone (C2C12 myoblasts) | other results
1 | NAMPT430-491: Truncated hNAMPTcif, residues 430-491 of full length NAMPT, SEQ ID NO: 8 (His-tagged: SEQ ID NO: 9) (protein) LSLHRTPAGNFVTLEEGKGDLEEYGQDLLHTVFKNGKVTKSYSFDEIRKNAQLNIELEAAHH | enhanced cellular proliferation compared to full-length NAMPT |  | 
2 | NAMPT414-491: Truncated hNAMPTcif, residues 414-491 of full length NAMPT, SEQ ID NO: 4 (His-tagged: SEQ ID NO: 5) (protein) FKDPVADPNKRSKKGRLSLHRTPAGNFVTLEEGKGDLEEYGQDLLHTVFKNGKVTKSYSFDEIRKNAQLNIELEAAHH | enhanced cellular proliferation compared to full-length NAMPT |  | 
3 | CCL4/MIP-1β: canonical CCR5 ligand (protein, UniProt P14097 24-92, looked up) C-C motif chemokine 4: APMGSDPPTSCCFSYTSRQLHRSFVMDYYETSSLCSKPAVVFLTKRGRQICANPSEPWVTEYMSDLELN |  | could be recapitulated | myoblast proliferation (EdU incorporation), factor alone (C2C12 myoblasts; listed as mrCCL4): functioned to enhance C2C12 proliferation
4 | hrNAMPT(1): Commercially available human recombinant NAMPT source 1 (Peprotech); used in the mouse injury model (protein) PPNTSKVYSYFECREKKTENSKLRKVKYEETVFYGLQYILNKYLKGKVVTKEKIQEAKDVYKEHFQDDVFNEKGWNYILEKYDGHLPIEIKAVPEGFVIPRGNVLFTVENTDPECYWLTNWIETILVQSWYPITVATNSREQKKILAKYLLETSGNLDGLEYKLHDFGYRGVSSQETAGIGASAHLVNFKGTDTVAGLALIKKYYGTKDPVPGYSVPAAEHSTITAWGKDHEKDAFEHIVTQFSSVPVSVVSDSYDIYNACEKIWGEDLRHLIVSRSTQAPLIIRPDSGNPLDTVLKVLEILGKKFPVTENSKGYKLLPPYLRVIQGDGVDINTLQEIVEGMKQKMWSIENIAFGSGGGLLQKLTRDLLNCSFKCSYVVTNGLGINVFKDPVADPNKRSKKGRLSLHRTPAGNFVTLEEGKGDLEEYGQDLLHTVFKNGKVTKSYSFDEIRKNAQLNIELEAAHH |  | dose dependent increase in myoblast proliferation; also recorded: comparable and significant dose dependent increases in myoblast proliferation | 
5 | CCL8/MCP-2: canonical CCR5 ligand (protein, UniProt Q9Z121 24-97, looked up) C-C motif chemokine 8: GPDKAPVTCCFHVLKLKIPLRVLKSYERINNIQCPMEAVVFQTKQGMSLCVDPTQKWVSEYMEILDQKSQILQP |  | could be recapitulated | myoblast proliferation (EdU incorporation), factor alone (C2C12 myoblasts; listed as mrCCL8): functioned to enhance C2C12 proliferation
6 | NAMPT422-491: Truncated hNAMPTcif, residues 422-491 of full length NAMPT, SEQ ID NO: 6 (His-tagged: SEQ ID NO: 7) (protein) NKRSKKGRLSLHRTPAGNFVTLEEGKGDLEEYGQDLLHTVFKNGKVTKSYSFDEIRKNAQLNIELEAAHH | highest cellular proliferation compared to all NAMPT variants tested; also recorded: statistically significant increase in proliferation |  | cell proliferation (EdU-positive cells) within the injury zone [2]: significant increase in cell proliferation within the injury zone; also recorded: significantly higher levels as compared to human recombinant-NAMPT (hrNAMPT); satellite cell proliferation, percentage increase vs PBS-treated control [3]: even greater satellite cell proliferation compared to both full length NAMPT and NAMPT402-491; endothelial cell proliferation, percentage increase vs PBS-treated control [4]: still stimulated endothelial cell proliferation above negative control
7 | hrNAMPT(2): Second commercially available human recombinant NAMPT protein source (protein) MNPAAEAEFNILLATDSYKVTHYKQYPPNTSKVYSYFECREKKTENSKLRKVKYEETVFYGLQYILNKYLKGKVVTKEKIQEAKDVYKEHFQDDVFNEKGWNYILEKYDGHLPIEIKAVPEGFVIPRGNVLFTVENTDPECYWLTNWIETILVQSWYPITVATNSREQKKILAKYLLETSGNLDGLEYKLHDFGYRGVSSQETAGIGASAHLVNFKGTDTVAGLALIKKYYGTKDPVPGYSVPAAEHSTITAWGKDHEKDAFEHIVTQFSSVPVSVVSDSYDIYNACEKIWGEDLRHLIVSRSTQAPLIIRPDSGNPLDTVLKVLEILGKKFPVTENSKGYKLLPPYLRVIQGDGVDINTLQEIVEGMKQKMWSIENIAFGSGGGLLQKLTRDLLNCSFKCSYVVTNGLGINVFKDPVADPNKRSKKGRLSLHRTPAGNFVTLEEGKGDLEEYGQDLLHTVFKNGKVTKSYSFDEIRKNAQLNIELEAAHH |  | dose dependent increase in myoblast proliferation; also recorded: comparable and significant dose dependent increases in myoblast proliferation | 
